B1: Tissue-nonspecific alkaline phosphatase (TNALP): heterodimeric N230Q/N430D (protein)
parent chain: MISPFLVLAIGTCLTNSLVPEKEKDPKYWRDQAQETLKYALELQKLNTNVAKNVIMFLGDGMGVSTVTAARILKGQLHHNPGEETRLEMDKFPFVALSKTYNTNAQVPDSAGTATAYLCGVKANEGTVGVSAATERSRCNTTQGNEVTSILRWAKDAGKSVGIVTTTRVNHATPSAAYAHSADRDWYSDNEMPPEALSQGCKDIAYQLMHNIRDIDVIMGGGRKYMYPKNKTDVEYESDEKARGTRLDGLDLVDTWKSFKPRYKHSHFIWNRTELLTLDPHNVDYLLGLFEPGDMQYELNRNNVTDPSLSEMVVVAIQILRKNPKGFFLLVEGGRIDHGHHEGKAKQALHEAVEMDRAIGQAGSLTSSEDTLTVVTADHSHVFTFGGYTPRGNSIFGLAPMLSDTDKKPFTAILYGNGPGYKVVGGERENVSMVDYAHNNYQAQSAVPLRHETHGGEDVAVFSKGPMAHLLHGVHEQNYVPHVMAYAACIGANLGHCAPASSAGSLAAGPLLLALALYPLSVLF
B2: Tissue-nonspecific alkaline phosphatase (TNALP): N271Q (protein)
parent chain: MISPFLVLAIGTCLTNSLVPEKEKDPKYWRDQAQETLKYALELQKLNTNVAKNVIMFLGDGMGVSTVTAARILKGQLHHNPGEETRLEMDKFPFVALSKTYNTNAQVPDSAGTATAYLCGVKANEGTVGVSAATERSRCNTTQGNEVTSILRWAKDAGKSVGIVTTTRVNHATPSAAYAHSADRDWYSDNEMPPEALSQGCKDIAYQLMHNIRDIDVIMGGGRKYMYPKNKTDVEYESDEKARGTRLDGLDLVDTWKSFKPRYKHSHFIWNRTELLTLDPHNVDYLLGLFEPGDMQYELNRNNVTDPSLSEMVVVAIQILRKNPKGFFLLVEGGRIDHGHHEGKAKQALHEAVEMDRAIGQAGSLTSSEDTLTVVTADHSHVFTFGGYTPRGNSIFGLAPMLSDTDKKPFTAILYGNGPGYKVVGGERENVSMVDYAHNNYQAQSAVPLRHETHGGEDVAVFSKGPMAHLLHGVHEQNYVPHVMAYAACIGANLGHCAPASSAGSLAAGPLLLALALYPLSVLF
B3: Tissue-nonspecific alkaline phosphatase (TNALP): N140Q/N230Q (protein)
parent chain: MISPFLVLAIGTCLTNSLVPEKEKDPKYWRDQAQETLKYALELQKLNTNVAKNVIMFLGDGMGVSTVTAARILKGQLHHNPGEETRLEMDKFPFVALSKTYNTNAQVPDSAGTATAYLCGVKANEGTVGVSAATERSRCNTTQGNEVTSILRWAKDAGKSVGIVTTTRVNHATPSAAYAHSADRDWYSDNEMPPEALSQGCKDIAYQLMHNIRDIDVIMGGGRKYMYPKNKTDVEYESDEKARGTRLDGLDLVDTWKSFKPRYKHSHFIWNRTELLTLDPHNVDYLLGLFEPGDMQYELNRNNVTDPSLSEMVVVAIQILRKNPKGFFLLVEGGRIDHGHHEGKAKQALHEAVEMDRAIGQAGSLTSSEDTLTVVTADHSHVFTFGGYTPRGNSIFGLAPMLSDTDKKPFTAILYGNGPGYKVVGGERENVSMVDYAHNNYQAQSAVPLRHETHGGEDVAVFSKGPMAHLLHGVHEQNYVPHVMAYAACIGANLGHCAPASSAGSLAAGPLLLALALYPLSVLF
B4: Tissue-nonspecific alkaline phosphatase (TNALP): N140Q/N303Q (protein)
parent chain: MISPFLVLAIGTCLTNSLVPEKEKDPKYWRDQAQETLKYALELQKLNTNVAKNVIMFLGDGMGVSTVTAARILKGQLHHNPGEETRLEMDKFPFVALSKTYNTNAQVPDSAGTATAYLCGVKANEGTVGVSAATERSRCNTTQGNEVTSILRWAKDAGKSVGIVTTTRVNHATPSAAYAHSADRDWYSDNEMPPEALSQGCKDIAYQLMHNIRDIDVIMGGGRKYMYPKNKTDVEYESDEKARGTRLDGLDLVDTWKSFKPRYKHSHFIWNRTELLTLDPHNVDYLLGLFEPGDMQYELNRNNVTDPSLSEMVVVAIQILRKNPKGFFLLVEGGRIDHGHHEGKAKQALHEAVEMDRAIGQAGSLTSSEDTLTVVTADHSHVFTFGGYTPRGNSIFGLAPMLSDTDKKPFTAILYGNGPGYKVVGGERENVSMVDYAHNNYQAQSAVPLRHETHGGEDVAVFSKGPMAHLLHGVHEQNYVPHVMAYAACIGANLGHCAPASSAGSLAAGPLLLALALYPLSVLF

Key:
[1] = pNPP activity; mutant:WT plasmid 1:1 (heterodimers not confirmed); details: glycan lost; control: wild type plasmid only
[2] = SYPRO Orange thermal shift, pooled purified protein; details: glycan lost; control: wild type
[3] = weak anion-exchange HPLC with activity-based detection; details: glycan lost; control: wild type
[4] = anti-Flag capillary immunoblot of Flag-purified medium, pooled n=6; details: glycan lost; control: wild type
[5] = pNPP activity of supernatant, normalised to total protein; homodimeric double mutants; details: glycan lost; control: wild type

Protein | enzymatic_activity, percent_of_wt [1] | stability_or_folding, Tm [2] | other: HPLC isoform profile [3] | expression_or_secretion, fold_change [4] | enzymatic_activity, other: specific activity [5]
B1 | no change |  |  |  | 
B2 |  | no change, 54.5 vs 54.5 | no change | decreases, 0.4 vs 1.0 | 
B3 |  | no change, 54.9 vs 54.5 |  | decreases, 0.5 vs 1.0 | decreases, 3.8 ± 3.9 vs 13.6 ± 6.6
B4 |  |  | no change | decreases, 0.4 vs 1.0 | decreases, 3.5 ± 2.7 vs 13.6 ± 6.6

From publication PMC12861225
